# Measurements taken from patent publication US20210163584A1 (Sanofi, published 2021).
# Where two headings read alike, the source gives them in different places.
# Legend:
# TGF-β1 [1] = molecular target: T1, TGF-β1 (UniProt P01137 279-390); assay: cell-based or functional assay
# TGF-β1 [2] = molecular target: T1, TGF-β1; assay: cell-based or functional assay; remark: listed apart in the source
# TGF-β1 [3] = molecular target: T1, TGF-β1; assay: cell-based or functional assay; remark: listed apart in the source
# TGF-β1 [4] = molecular target: T1, TGF-β1; assay: cell-based or functional assay; remark: listed apart in the source
# TGF-β1 [5] = molecular target: T1, TGF-β1; assay: SPR (Biacore); amine-coupled TGF-β1 on chip, antibody as analyte, kinetic fit
# From the text: Recombinant mAb1-D10 fusion variants of Example 7 were also quantitatively assessed for TGF-β1 binding using surface plasmon resonance (SPR) as detected by Biacore. Samples containing purified variants were passed over a sensor chip with amine-coupled TGF-β1 to determine the equilibrium constant, KD. A target immobilization level of less than 100 response units (RU) of TGF-β1 was chosen to minimize the potential for avidity effects arising from binding adjacent TGF-β1 molecules on the chip. The level of immobilization was determined by the change in response units after NHS/EDC activation of the chip surface, but before quenching with ethanolamine. The fusion variants, WT fusion variant F1, and mAb1 control were diluted to 30, 10, 3, 1 and 0.37 nM in HBS-EP buffer and passed over the TGF-β1 chip at 30 μL/min for 3 min, followed by 5 min dissociation in the same buffer. Between runs, the chip surface was regenerated to remove any bound antibody by passing two 30 sec injections of 40 mM HCl over the chip at a flow rate of 75 μL/min. […] Unexpectedly, the maximum signal (RU) elicited by the fusion variants decreased with increasing number of peptides, with variant F17 (D10-HC-D10/D10-LC, PAR=6) showing the lowest signal. […] A possible explanation of this decline may reflect electrostatic repulsion between the chip matrix (carboxymethyl dextran) and the negatively charged D10 peptides.
# T1 sequence (P01137 279-390 limits assumed): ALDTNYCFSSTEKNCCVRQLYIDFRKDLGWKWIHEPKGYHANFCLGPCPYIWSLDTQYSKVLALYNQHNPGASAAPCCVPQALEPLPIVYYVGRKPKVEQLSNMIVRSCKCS
"half-maximal inhibition of IL-11 release (EC50), A549 cells (TGF-β1 [1]) [nM]",IC50 (read off the curve); IL-11 release by A549 cells in response to TGF-β1 (TGF-β1 [2]) [nM],IC50 (read off the curve); IL-11 release by A549 cells in response to TGF-β1 (TGF-β1 [3]) [nM],IC50 (read off the curve); IL-11 release by A549 cells in response to TGF-β1 (TGF-β1 [4]) [nM],Kd (TGF-β1 [5]) [nM],koff (TGF-β1 [5]) [s⁻¹],kon (TGF-β1 [5]) [M⁻¹ s⁻¹],Binder
~0.1,~0.05,,,,,,"mAb1 control conjugate (PAR=0) (antibody, mouse IgG1, kappa, hinge disulfides reduced; D10-maleimide peptide omitted; thiols blocked with N-ethylmaleimide) heavy: HVQLQQSGPELVRPGASVKLSCKASGYIFITYWMNWVKQRPGQGLEWIGQIFPASGSTNYNEMFEGKATLTVDTSSSTAYMQLSSLTSEDSAVYYCARGDGNYALDAMDYWGQGTSVTVSSAKTTPPSVYPLAPGSAAQTNSMVTLGCLVKGYFPEPVTVTWNSGSLSSGVHTFPAVLQSDLYTLSSSVTVPSSTWPSQTVTCNVAHPASSTKVDKKIVPRDCGCKPCICTVPEVSSVFIFPPKPKDVLTITLTPKVTCVVVDISKDDPEVQFSWFVDDVEVHTAQTKPREEQFNSTFRSVSELPIMHQDWLNGKEFKCRVNSAAFPAPIEKTISKTKGRPKAPQVYTIPPPKEQMAKDKVSLTCMITDFFPEDITVEWQWNGQPAENYKNTQPIMDTDGSYFVYSKLNVQKSNWEAGNTFTCSVLHEGLHNHHTEKSLSHSPGK light: NIVLTQSPASLAVSLGQRATISCRASESVDSYGNSFMHWYQQKSGQPPKLLIYLASNLESGVPARFSGSGSRTDFTLTIDPVEADDAATYYCQQNNEDPLTFGAGTKLELKRADAAPTVSIFPPSSEQLTSGGASVVCFLNNFYPKDINVKWKIDGSERQNGVLNSWTDQDSKDSTYSMSSTLTLTKDEYERHNSYTCEATHKTSTSPIVKSFNRNEC"
~0.1,~0.04,,,,,,"mAb1-D10 conjugate (PAR=9) (antibody, mouse IgG1, kappa, Ac-D10-C2-PEG12-C6-maleimide possibly on a light chain cysteine; Ac-D10-C2-PEG12-C6-maleimide on reduced hinge region cysteines; average 9 peptides per antibody (heavy and light chains together)) heavy: HVQLQQSGPELVRPGASVKLSCKASGYIFITYWMNWVKQRPGQGLEWIGQIFPASGSTNYNEMFEGKATLTVDTSSSTAYMQLSSLTSEDSAVYYCARGDGNYALDAMDYWGQGTSVTVSSAKTTPPSVYPLAPGSAAQTNSMVTLGCLVKGYFPEPVTVTWNSGSLSSGVHTFPAVLQSDLYTLSSSVTVPSSTWPSQTVTCNVAHPASSTKVDKKIVPRDCGCKPCICTVPEVSSVFIFPPKPKDVLTITLTPKVTCVVVDISKDDPEVQFSWFVDDVEVHTAQTKPREEQFNSTFRSVSELPIMHQDWLNGKEFKCRVNSAAFPAPIEKTISKTKGRPKAPQVYTIPPPKEQMAKDKVSLTCMITDFFPEDITVEWQWNGQPAENYKNTQPIMDTDGSYFVYSKLNVQKSNWEAGNTFTCSVLHEGLHNHHTEKSLSHSPGK light: NIVLTQSPASLAVSLGQRATISCRASESVDSYGNSFMHWYQQKSGQPPKLLIYLASNLESGVPARFSGSGSRTDFTLTIDPVEADDAATYYCQQNNEDPLTFGAGTKLELKRADAAPTVSIFPPSSEQLTSGGASVVCFLNNFYPKDINVKWKIDGSERQNGVLNSWTDQDSKDSTYSMSSTLTLTKDEYERHNSYTCEATHKTSTSPIVKSFNRNEC"
~0.1,~0.2,~0.2,~0.1,6,0.001,167000,"mAb1 (mouse IgG1 anti-TGFβ monoclonal antibody, R&D Systems Clone #1D11) (antibody, Mouse IgG1, pan-specific anti-TGFβ; bought antibody used as control; also called unmodified mAb; mAb1 control) heavy: HVQLQQSGPELVRPGASVKLSCKASGYIFITYWMNWVKQRPGQGLEWIGQIFPASGSTNYNEMFEGKATLTVDTSSSTAYMQLSSLTSEDSAVYYCARGDGNYALDAMDYWGQGTSVTVSSAKTTPPSVYPLAPGSAAQTNSMVTLGCLVKGYFPEPVTVTWNSGSLSSGVHTFPAVLQSDLYTLSSSVTVPSSTWPSQTVTCNVAHPASSTKVDKKIVPRDCGCKPCICTVPEVSSVFIFPPKPKDVLTITLTPKVTCVVVDISKDDPEVQFSWFVDDVEVHTAQTKPREEQFNSTFRSVSELPIMHQDWLNGKEFKCRVNSAAFPAPIEKTISKTKGRPKAPQVYTIPPPKEQMAKDKVSLTCMITDFFPEDITVEWQWNGQPAENYKNTQPIMDTDGSYFVYSKLNVQKSNWEAGNTFTCSVLHEGLHNHHTEKSLSHSPGK light: NIVLTQSPASLAVSLGQRATISCRASESVDSYGNSFMHWYQQKSGQPPKLLIYLASNLESGVPARFSGSGSRTDFTLTIDPVEADDAATYYCQQNNEDPLTFGAGTKLELKRADAAPTVSIFPPSSEQLTSGGASVVCFLNNFYPKDINVKWKIDGSERQNGVLNSWTDQDSKDSTYSMSSTLTLTKDEYERHNSYTCEATHKTSTSPIVKSFNRNEC"
~0.1,~0.06,,,,,,"mAb1-D10 conjugate (PAR=5) (antibody, mouse IgG1, kappa, Ac-D10-C2-PEG12-C6-maleimide on reduced hinge region cysteines; average 5 peptides per antibody) heavy: HVQLQQSGPELVRPGASVKLSCKASGYIFITYWMNWVKQRPGQGLEWIGQIFPASGSTNYNEMFEGKATLTVDTSSSTAYMQLSSLTSEDSAVYYCARGDGNYALDAMDYWGQGTSVTVSSAKTTPPSVYPLAPGSAAQTNSMVTLGCLVKGYFPEPVTVTWNSGSLSSGVHTFPAVLQSDLYTLSSSVTVPSSTWPSQTVTCNVAHPASSTKVDKKIVPRDCGCKPCICTVPEVSSVFIFPPKPKDVLTITLTPKVTCVVVDISKDDPEVQFSWFVDDVEVHTAQTKPREEQFNSTFRSVSELPIMHQDWLNGKEFKCRVNSAAFPAPIEKTISKTKGRPKAPQVYTIPPPKEQMAKDKVSLTCMITDFFPEDITVEWQWNGQPAENYKNTQPIMDTDGSYFVYSKLNVQKSNWEAGNTFTCSVLHEGLHNHHTEKSLSHSPGK light: NIVLTQSPASLAVSLGQRATISCRASESVDSYGNSFMHWYQQKSGQPPKLLIYLASNLESGVPARFSGSGSRTDFTLTIDPVEADDAATYYCQQNNEDPLTFGAGTKLELKRADAAPTVSIFPPSSEQLTSGGASVVCFLNNFYPKDINVKWKIDGSERQNGVLNSWTDQDSKDSTYSMSSTLTLTKDEYERHNSYTCEATHKTSTSPIVKSFNRNEC"
,,,~0.02,4.15,0.00079,191000,"mAb1 F17 (antibody, mouse IgG1, kappa, Mouse IgG1 fusion variant, PAR 6; also called D10-HC-D10: D10-LC) heavy: DDDDDDDDDDHVQLQQSGPELVRPGASVKLSCKASGYIFITYWMNWVKQRPGQGLEWIGQIFPASGSTNYNEMFEGKATLTVDTSSSTAYMQLSSLTSEDSAVYYCARGDGNYALDAMDYWGQGTSVTVSSAKTTPPSVYPLAPGSAAQTNSMVTLGCLVKGYFPEPVTVTWNSGSLSSGVHTFPAVLQSDLYTLSSSVTVPSSTWPSQTVTCNVAHPASSTKVDKKIVPRDCGCKPCICTVPEVSSVFIFPPKPKDVLTITLTPKVTCVVVDISKDDPEVQFSWFVDDVEVHTAQTKPREEQFNSTFRSVSELPIMHQDWLNGKEFKCRVNSAAFPAPIEKTISKTKGRPKAPQVYTIPPPKEQMAKDKVSLTCMITDFFPEDITVEWQWNGQPAENYKNTQPIMDTDGSYFVYSKLNVQKSNWEAGNTFTCSVLHEGLHNHHTEKSLSHSPGKDDDDDDDDDD light: DDDDDDDDDDNIVLTQSPASLAVSLGQRATISCRASESVDSYGNSFMHWYQQKSGQPPKLLIYLASNLESGVPARFSGSGSRTDFTLTIDPVEADDAATYYCQQNNEDPLTFGAGTKLELKRADAAPTVSIFPPSSEQLTSGGASVVCFLNNFYPKDINVKWKIDGSERQNGVLNSWTDQDSKDSTYSMSSTLTLTKDEYERHNSYTCEATHKTSTSPIVKSFNRNEC"
